Collision cross section data for 52 sequences are collected here from the supplement of paper PMC10598134.

The nature of this data set: collision cross section of modified peptide (TIMS, N2, iRT-aligned); higher = larger / more extended gas-phase ion. As to the method:
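1/K0 was aligned run-wise to spiked iRT peptides and converted to CCS in N2 (Mason-Schamp). Values are the mean of 1-3 technical replicates for the most abundant feature at each charge state.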

Setting [1] is: charge state: 2, modification: Crotonyl.
The mark [2] stands for this setting: charge state: 3, modification: Crotonyl.
The mark [3] stands for this setting: charge state: 2, modification: Dimethyl (K).
The mark [4] stands for this setting: charge state: 3, modification: Dimethyl (K).
Setting [5] is: charge state: 2, modification: Formyl.
Setting [6] is: charge state: 3, modification: Formyl.
[7] abbreviates: charge state: 2, modification: Glutarylation.
[8] abbreviates: charge state: 3, modification: Glutarylation.
The mark [9] stands for this setting: charge state: 2, modification: GlyGly (K).
The mark [10] stands for this setting: charge state: 3, modification: GlyGly (K).
The mark [11] stands for this setting: charge state: 2, modification: Malonyl.
Setting [12] is: charge state: 3, modification: Malonyl.
The mark [13] stands for this setting: charge state: 2, modification: Methyl (K).
Setting [14] is: charge state: 3, modification: Methyl (K).
[15] abbreviates: charge state: 2, modification: Propionyl.
Setting [16] is: charge state: 2, modification: Succinyl.
The mark [17] stands for this setting: charge state: 3, modification: Succinyl.
[18] abbreviates: charge state: 2, modification: Trimethyl (K).
The mark [19] stands for this setting: charge state: 3, modification: Trimethyl (K).
Setting [20] is: charge state: 2, modification: hydroxyisobutyryl.
Setting [21] is: charge state: 3, modification: hydroxyisobutyryl.
Setting [22] is: charge state: 2, modification: Acetyl (K).
Setting [23] is: charge state: 3, modification: Acetyl (K).
Setting [24] is: charge state: 2, modification: Butyryl.
Where [25] appears, read: charge state: 3, modification: Butyryl.
Where [26] appears, read: charge state: 2, modification: Biotin.
The mark [27] stands for this setting: charge state: 3, modification: Biotin.

± gives the standard deviation.

On to “DAEAAEATAEGALKAEK [_DAEAAEATAEGALK(Crotonyl)AEK_]”, for which the collision cross section runs as follows: under setting [1], 474.87 ± 0.81 Å²; under setting [2], 545.42 ± 1.3 Å².
As to “DAEAAEATAEGALKAEK [_DAEAAEATAEGALK(Dimethyl (K))AEK_]”, the collision cross section runs as follows: under setting [3], 461.24 ± 1.8 Å²; under setting [4], 536.26 ± 0.61 Å².
With “DAEAAEATAEGALKAEK [_DAEAAEATAEGALK(Formyl)AEK_]”, the collision cross section is on record as 428.82 ± 0.71 Å² under setting [5] and 534.4 ± 0.57 Å² under setting [6].
“DAEAAEATAEGALKAEK [_DAEAAEATAEGALK(Gluratylation)AEK_]” registered a collision cross section under setting [7] of 438.1 ± 0.96 Å² and a collision cross section under setting [8] of 545.34 ± 0.13 Å².
“DAEAAEATAEGALKAEK [_DAEAAEATAEGALK(GlyGly (K))AEK_]”: the collision cross section by setting is: under setting [9], 475 ± 1.6 Å²; under setting [10], 538.51 ± 1.1 Å².
Turning to “DAEAAEATAEGALKAEK [_DAEAAEATAEGALK(Malonyl)AEK_]”, the collision cross section is 425.91 ± 1 Å² under setting [11] and 541.5 Å² under setting [12].
As to “DAEAAEATAEGALKAEK [_DAEAAEATAEGALK(Methyl (K))AEK_]”, the collision cross section under setting [13] is given as 456.59 ± 2.6 Å² and the collision cross section under setting [14] is recorded as 536.13 ± 1.5 Å².
On to “DAEAAEATAEGALKAEK [_DAEAAEATAEGALK(Propionyl)AEK_]”, for which the collision cross section under setting [15] is recorded as 451.16 ± 23 Å².
With “DAEAAEATAEGALKAEK [_DAEAAEATAEGALK(Succinyl)AEK_]”, the collision cross section is, setting by setting: under setting [16], 437.62 ± 0.51 Å²; under setting [17], 541.32 ± 2 Å².
Take “DAEAAEATAEGALKAEK [_DAEAAEATAEGALK(Trimethyl (K))AEK_]”: the collision cross section reads like this: under setting [18], 469.97 ± 1 Å²; under setting [19], 535.87 ± 1.1 Å².
Take “DAEAAEATAEGALKAEK [_DAEAAEATAEGALK(hydroxyisobutyryl)AEK_]”: the collision cross section reads like this: under setting [20], 435.11 ± 0.29 Å²; under setting [21], 547.8 ± 2.1 Å².
Take “DAIHFYNKSLAEHR [_DAIHFYNK(Acetyl (K))SLAEHR_]”: the collision cross section stood at 449.95 Å² under setting [22] and 504.71 ± 0.24 Å² under setting [23].
In the case of “DAIHFYNKSLAEHR [_DAIHFYNK(Butyryl)SLAEHR_]”, the collision cross section worked out at 452.1 Å² under setting [24] and 511.38 ± 1.6 Å² under setting [25].
As to “DAIHFYNKSLAEHR [_DAIHFYNK(Crotonyl)SLAEHR_]”, the collision cross section under setting [2] came out at 509.89 ± 2 Å².
Under setting [4], “DAIHFYNKSLAEHR [_DAIHFYNK(Dimethyl (K))SLAEHR_]” returned a collision cross section of 497.01 ± 1.6 Å².
“DAIHFYNKSLAEHR [_DAIHFYNK(Formyl)SLAEHR_]”: the collision cross section reads like this: under setting [5], 447.82 Å²; under setting [6], 498.82 ± 2.2 Å².
On to “DAIHFYNKSLAEHR [_DAIHFYNK(Gluratylation)SLAEHR_]”, for which the collision cross section turned out to be 458.31 Å² under setting [7] and 515.3 ± 0.96 Å² under setting [8].
Sequence “DAIHFYNKSLAEHR [_DAIHFYNK(GlyGly (K))SLAEHR_]” showed a collision cross section under setting [10] of 519.9 ± 0.35 Å².
“DAIHFYNKSLAEHR [_DAIHFYNK(Malonyl)SLAEHR_]” had a collision cross section under setting [12] of 505.96 ± 0.89 Å².
Consider “DAIHFYNKSLAEHR [_DAIHFYNK(Methyl (K))SLAEHR_]”, for which the collision cross section is reported as 441.67 Å² under setting [13] and 502.11 ± 2.1 Å² under setting [14].
Turning to “DAIHFYNKSLAEHR [_DAIHFYNK(Succinyl)SLAEHR_]”, the collision cross section by setting is: under setting [16], 453.03 Å²; under setting [17], 520.54 ± 0.35 Å².
Under setting [19], “DAIHFYNKSLAEHR [_DAIHFYNK(Trimethyl (K))SLAEHR_]” gave a collision cross section of 498.17 ± 1.1 Å².
Sequence “DAIHFYNKSLAEHR [_DAIHFYNK(hydroxyisobutyryl)SLAEHR_]” came in with a collision cross section under setting [21] of 512.82 ± 2.8 Å².
With “DASTLQSQKAEGTGDAK [_DASTLQSQK(Acetyl (K))AEGTGDAK_]”, the collision cross section reads like this: under setting [22], 431.11 ± 1.6 Å²; under setting [23], 508.84 ± 0.99 Å².
With “DASTLQSQKAEGTGDAK [_DASTLQSQK(Biotin)AEGTGDAK_]”, the collision cross section by setting is: under setting [26], 450.36 ± 0.63 Å²; under setting [27], 520.24 ± 1.3 Å².
Take “DASTLQSQKAEGTGDAK [_DASTLQSQK(Butyryl)AEGTGDAK_]”: the collision cross section by setting is: under setting [24], 440.14 ± 0.24 Å²; under setting [25], 511.91 ± 3.5 Å².
Take “DASTLQSQKAEGTGDAK [_DASTLQSQK(Crotonyl)AEGTGDAK_]”: the collision cross section is reported as 438.12 ± 0.54 Å² under setting [1] and 513.07 ± 2.8 Å² under setting [2].
In the case of “DASTLQSQKAEGTGDAK [_DASTLQSQK(Dimethyl (K))AEGTGDAK_]”, the collision cross section came out at 438.33 ± 1.3 Å² under setting [3] and 482.19 ± 4.5 Å² under setting [4].
“DASTLQSQKAEGTGDAK [_DASTLQSQK(Formyl)AEGTGDAK_]”: the collision cross section is, setting by setting: under setting [5], 431.62 ± 0.17 Å²; under setting [6], 503.35 ± 3 Å².
“DASTLQSQKAEGTGDAK [_DASTLQSQK(Gluratylation)AEGTGDAK_]”: the collision cross section by setting is: under setting [7], 440.54 ± 1.5 Å²; under setting [8], 515.28 ± 0.85 Å².
“DASTLQSQKAEGTGDAK [_DASTLQSQK(GlyGly (K))AEGTGDAK_]”: the collision cross section is recorded as 451.81 ± 1.4 Å² under setting [9] and 505.67 ± 1.1 Å² under setting [10].
For “DASTLQSQKAEGTGDAK [_DASTLQSQK(Malonyl)AEGTGDAK_]”, the collision cross section is, setting by setting: under setting [11], 438.73 ± 1.8 Å²; under setting [12], 490.61 ± 1.6 Å².
As to “DASTLQSQKAEGTGDAK [_DASTLQSQK(Methyl (K))AEGTGDAK_]”, the collision cross section runs as follows: under setting [13], 440.39 ± 1.8 Å²; under setting [14], 487.49 ± 2.4 Å².
“DASTLQSQKAEGTGDAK [_DASTLQSQK(Propionyl)AEGTGDAK_]” showed a collision cross section under setting [15] of 434.77 ± 2.9 Å².
On to “DASTLQSQKAEGTGDAK [_DASTLQSQK(Succinyl)AEGTGDAK_]”, for which the collision cross section is 437.2 ± 0.35 Å² under setting [16] and 509.05 ± 1.6 Å² under setting [17].
“DASTLQSQKAEGTGDAK [_DASTLQSQK(Trimethyl (K))AEGTGDAK_]”: the collision cross section is 445.31 ± 1 Å² under setting [18] and 482.47 ± 1.6 Å² under setting [19].
Consider “DASTLQSQKAEGTGDAK [_DASTLQSQK(hydroxyisobutyryl)AEGTGDAK_]”, for which the collision cross section was determined as 441.13 ± 0.33 Å² under setting [20] and 514.99 ± 2.1 Å² under setting [21].
Consider “DDIIENAPTTHTEEYSGEEK [_DDIIENAPTTHTEEY(Nitro (Y))SGEEK_]”, for which the collision cross section (charge state: 3, modification: Nitro (Y)) was determined as 553.72 ± 2.2 Å².
With “DDSFLGKLGGTLAR [_DDSFLGK(Acetyl (K))LGGTLAR_]”, the collision cross section is, setting by setting: under setting [22], 410.51 ± 1.7 Å²; under setting [23], 489.73 Å².
Consider “DDSFLGKLGGTLAR [_DDSFLGK(Biotin)LGGTLAR_]”, for which the collision cross section turned out to be 427.7 ± 0.62 Å² under setting [26] and 505.13 Å² under setting [27].
For the sequence “DDSFLGKLGGTLAR [_DDSFLGK(Butyryl)LGGTLAR_]”, the collision cross section is, setting by setting: under setting [24], 417.41 ± 0.39 Å²; under setting [25], 492.3 ± 2.4 Å².
On to “DDSFLGKLGGTLAR [_DDSFLGK(Crotonyl)LGGTLAR_]”, for which the collision cross section is on record as 415.37 ± 0.28 Å² under setting [1] and 492.69 Å² under setting [2].
Consider “DDSFLGKLGGTLAR [_DDSFLGK(Dimethyl (K))LGGTLAR_]”, for which the collision cross section reads like this: under setting [3], 416.68 ± 0.75 Å²; under setting [4], 473.5 ± 1.2 Å².
Consider “DDSFLGKLGGTLAR [_DDSFLGK(Formyl)LGGTLAR_]”, for which the collision cross section under setting [5] is recorded as 408.49 ± 1.1 Å².
Take “DDSFLGKLGGTLAR [_DDSFLGK(Gluratylation)LGGTLAR_]”: the collision cross section is, setting by setting: under setting [7], 415.27 ± 0.59 Å²; under setting [8], 485.15 Å².
For the sequence “DDSFLGKLGGTLAR [_DDSFLGK(GlyGly (K))LGGTLAR_]”, the collision cross section is, setting by setting: under setting [9], 434.49 ± 0.96 Å²; under setting [10], 484.35 ± 1.9 Å².
“DDSFLGKLGGTLAR [_DDSFLGK(Malonyl)LGGTLAR_]”: the collision cross section by setting is: under setting [11], 411.31 ± 1 Å²; under setting [12], 489.57 ± 2.2 Å².
With “DDSFLGKLGGTLAR [_DDSFLGK(Methyl (K))LGGTLAR_]”, the collision cross section runs as follows: under setting [13], 408.16 ± 0.81 Å²; under setting [14], 476.22 ± 3.5 Å².
Consider “DDSFLGKLGGTLAR [_DDSFLGK(Succinyl)LGGTLAR_]”, for which the collision cross section is given as 412.99 ± 0.37 Å² under setting [16] and 489.32 ± 3.3 Å² under setting [17].
On to “DDSFLGKLGGTLAR [_DDSFLGK(Trimethyl (K))LGGTLAR_]”, for which the collision cross section amounted to 427.63 Å² under setting [18] and 472.67 ± 1.8 Å² under setting [19].
Regarding “DDSFLGKLGGTLAR [_DDSFLGK(hydroxyisobutyryl)LGGTLAR_]”, the collision cross section by setting is: under setting [20], 418.74 ± 0.55 Å²; under setting [21], 495.38 ± 2.8 Å².
In the case of DDSNLYINVK [_DDSNLY(Nitro (Y))INVK_], under “charge state: 2, modification: Nitro (Y)”, the collision cross section worked out at 367.46 ± 0.55 Å².
